Experimental data: the RNAGym collection of RNA variant scans (doi:10.7554/elife.90254)

B1: OR4K15 (parent)
chain: GUUAACGGUCAUAGGCCAUGGAAACUAGGAGCACCAUUUCGCUGCCAGUGAAGAAAUGAACAAAGAAAAUCUGGGCCAGGCAGGCAUCAAAAGAAAUAGUCUUGCGCUCAACCAGAAAGUCUGUAAUCAUUUUAAGGGUA

Variants of: B1
Assay: self-cleavage, relative activity (ratio to wild type); higher = more cleavage; in vitro, sequencing; the parent is a self-cleaving ribozyme

Variant	self-cleavage
A54U A118G	0.95
A82G A86G	0.14
A24G A98U	1.74
A5G G48U	0.93
G14A A30G	2.84
A82U A89G	0.1
U43A A56G	1.86
G1A A95G	2.4
C6A U49G	0.61
A66G A117G	1.88
C17U U102C	0.9
U102A U122A	1.28
C71A A117G	0.35
A111G A118G	0.01
G20A A110U	1.39
A22U A59U	1.71
A110C	0.31
A23G A55C	1.33
G20A U38C	1.72
A52G A118G	1.21
A33G A95G	1.48
C40U U108C	0.02
A90G U132C	1.12
U39A C112G	0

Variant	self-cleavage
A55G C107U	0.05
G15A A129G	1.19
A13G A27G	1.15
C6A A116G	0.77
C88U	1.83
U87C U102C	2.08
U2A A110G	0.16
C128G	0.45
A78U U120C	0.12
U38C U139A	1.75
A96C A126G	0.77
A11G U49A	0.88
A63C G83U	0.83
U49C A116G	0.82
U131A U132A	0.14
A52U U124G	0.84
A27U U37C	1.42
A36U A117G	1.52
A30G C113U	0.07
A24U A89G	0.56
A59U G137U	2.15
U39C A111G	0.02
U108C A117C	0.06
G7U U122A	1.64

Variant	self-cleavage
A52G A117U	0.97
U72C U122C	0.03
A27U A90G	0.74
U49A A114U	0.04
A13C	1.33
U100A U131C	0.36
U37C A82U	0.13
U9A G58A	0.78
A94G A135U	1.8
U127A A135G	2.31
A91U A94G	1.54
A18G A91U	1.94
G1A U132C	0.94
A52G U124A	1.03
G28C U130C	0.64
U38C A135U	1.86
U87C U97C	1.63
A13C U122C	1.03
U43C A110U	1.68
C71A U103C	0.11
U12C U127C	0.62
A22C U139C	0.51
A63G A89G	1.89
A30G U127C	0.97

Variant	self-cleavage
A27G A56G	1.57
A51U U97C	1.37
A63U A86G	2.75
A23G U72A	0.23
G80C A96U	0.09
U72C A86G	0.14
U26C A64G	0.74
A62G A90U	0.76
A30G C35A	0.7
G7A U133A	0.79
U49A U70A	0.66
C46A A116G	0.57
A55G A91U	2.07
A110G U122C	0.09
A11U U120C	0.69
A24U U49C	0.58
U43C A90G	0.97
A67G A92C	1.62
A69G C81A	0.15
G73U U122C	0.1
U12C A30G	1.28
A23G U39A	0.98
A90U A129G	1.51
U12C A98G	0.74

Variant	self-cleavage
C46U A82C	0.27
A92G A114U	0.02
C16A U57G	0.88
U97A A125G	0.86
U38C A116G	1.09
U26C U127C	0.85
C61U C101U	0.54
U9C G41U	1.55
U132G	0.89
U49G A51G	0.95
A111G U130A	0.02
U37C U87C	0.99
U9A U39C	0.86
A33U U127A	2.74
A11G A13U	0.72
A30G A52U	1.62
A22G U26A	0.67
U19C A116G	0.11
C25U A82G	0.05
G50U U103C	1.23
A78G A125G	0.1
A18U A59G	1.2
U9C U26C	1.06
G29U A78G	0.24

Variant	self-cleavage
A78G A117C	0.22
A89G C101U	0.29
A91U A117G	1.88
C10U A90C	0.97
U19A U43C	1.77
A78U U132C	0.48
U37G U87A	1.38
U120C A126G	0.27
A116G A129G	0.41
A89U U108A	0.02
U70C A98G	0.41
A51U U122C	1.26
A11G A56G	0.35
C85A G106U	0.03
U43C U103A	0.41
U57C U87A	0.98
U108A U131C	0.01
G7A A96U	1.83
U37C C128A	0.17
U2G U38A	1.08
C6U A60G	0.8
G48A A68G	1.7
A52U A98U	1.72
A27G C105A	0.04

Variant	self-cleavage
U2C A114C	0.03
A54G A64G	1.77
U72C A90G	0.54
U43C A63U	0.91
A56G A68U	1.86
U103G U127C	0
A4G A117G	1.18
C40A A94G	2.28
C34A A116U	0.51
U102A	0.74
A56G A117U	1.27
U2A A23C	0.29
A4U U19C	0.7
C10A A69G	0.29
A52G U70C	0.79
A69U A126U	0.72
A117U U132C	0.88
C46U A98G	0.74
G41A U130G	1.4
A54U C109U	0.39
U120A A129U	0.57
A51U A114G	0.19
C16U A118G	1.16
